# In US20250066499A1 (SUNSHINE GUOJIAN PHARMACEUTICAL SHANGHAI, published 2025):
# Where a chain is given by its changes, count along the chain named.
# T1: CD73-ND-P139A (human, UniProt P21589 27-317)
# T1 construct: Alanine mutant of CD73-ND
# T1 sequence: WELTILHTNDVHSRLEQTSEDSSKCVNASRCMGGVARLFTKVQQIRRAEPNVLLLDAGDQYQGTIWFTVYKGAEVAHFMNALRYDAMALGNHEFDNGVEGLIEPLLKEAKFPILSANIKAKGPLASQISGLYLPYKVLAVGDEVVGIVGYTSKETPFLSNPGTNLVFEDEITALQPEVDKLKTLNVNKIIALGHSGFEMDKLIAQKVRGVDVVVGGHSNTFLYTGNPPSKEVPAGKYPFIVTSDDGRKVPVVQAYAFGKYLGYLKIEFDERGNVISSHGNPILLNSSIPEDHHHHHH
# T2: CD73-ND-V140A (human, UniProt P21589 27-317)
# T2 construct: Alanine mutant of CD73-ND
# T2 sequence: T1 sequence with A139P, V140A
# T3: CD73-ND-L184A (human, UniProt P21589 27-317)
# T3 construct: Alanine mutant of CD73-ND
# T3 sequence: T1 sequence with A139P, L184A
# T4: CD73-ND-his (human, UniProt P21589 27-317)
# T4 construct: Biotinylated and captured on streptavidin in the ELISA
# T4 sequence: T1 sequence with A139P
# T5: CD73-ND-D142A (human, UniProt P21589 27-317)
# T5 construct: Alanine mutant of CD73-ND
# T5 sequence: T1 sequence with A139P, D142A
# B1: 48A11-HuV33 (antibody, human IgG4, V domains shown)
# VH: QVQLVQSGAEVKKPGASVKVSCKASGYTFTSYWMHWVRQAPGQGLEWIGEINPSIGRTNYNEKFKSRVTLTRDTSTSTAYMELSSLRSEDTAVYYCARRVYGTMDYWGQGTLVTVSS
# VL: DIQMTQSPSSLSASVGDRVTITCKASQDINSYLSWFQQKPGKSPKLLIYRANIWVDGVPSRFSGSGSGQDYTFTISSLQPEDIATYYCLQYDELYTFGQGTKVEIK
# notes: Humanized
# Experiments:
# [1] = target: T1, CD73-ND-P139A; assay: ELISA, high plateau value (OD 450 nm)
# Method: (§1) The ELISA plates were coated with SA protein diluted to 1.5 μg/mL in coating buffer (50 mM carbonate coating buffer, pH 9.6) and incubated overnight at 4° C. The supernatant was discarded, and the plates were washed three times with PBST. Then, 5% skimmed milk powder prepared with PBS was added for blocking and the plates were incubated for 2 h at 37° C. After washing the plates once with PBST, CD73-biotin protein (prepared by biotinylating CD73-His protein according to the EZ-Link NHS-Biotin Reagent instructions) was diluted to 0.5 μg/mL and added at 100 μL/well for incubation at room temperature for 1 h. The plates were washed three times with PBST, and the prepared murine-derived monoclonal antibodies against human CD73 were serially diluted with 1% BSA buffer prepared with PBST and added to the ELISA plates at 100 μl/well. The plates were incubated at 37° C. for 1 h. After washing the plates three times with PBST, HRP-labeled goat anti-mouse IgG secondary antibody was added and the plates were incubated for 30 min at 37° C. After washing the plates three times with PBST, the residual droplets were patted dry on absorbent paper as much as possible. Then, 100 μl of TMB color developing solution was added to each well, and the plates were incubated in the dark at room temperature for 5 min for color development. Subsequently, 50 μl of 2M H₂SO₄ stop solution was added to each well to terminate the substrate reaction. The OD values were read at 450 nm using a multimode microplate reader to analyze the binding ability of the tested antibodies to the target antigen human CD73-His.
# (§2) Referring to the experimental method in Example 3, the affinity of 48A11-HuV33 for various mutant proteins of CD73-ND was determined. The SA protein was diluted to 1 μg/mL for coating the ELISA plates, and the biotinylated CD73 protein (CD73-biotin) was used at a concentration of 0.1 μg/mL.
# [2] = target: T2, CD73-ND-V140A; assay: ELISA, high plateau value (OD 450 nm)
# Method: as §1, §2
# [3] = target: T3, CD73-ND-L184A; assay: ELISA, high plateau value (OD 450 nm)
# Method: as §1, §2
# [4] = target: T4, CD73-ND-his; assay: ELISA; decline multiple of Top against CD73-ND
# Method: as §1, §2
# [5] = target: T5, CD73-ND-D142A; assay: ELISA; decline multiple of Top against CD73-ND
# Method: as §1, §2
# [6] = target: T4, CD73-ND-his; assay: ELISA; decline multiple of EC50 against CD73-ND
# Method: as §1, §2
# [7] = target: T1, CD73-ND-P139A; assay: ELISA; decline multiple of EC50 against CD73-ND
# Method: as §1, §2
# [8] = target: T2, CD73-ND-V140A; assay: ELISA; decline multiple of EC50 against CD73-ND
# Method: as §1, §2
# [9] = target: T5, CD73-ND-D142A; assay: ELISA; decline multiple of EC50 against CD73-ND
# Method: as §1, §2
# [10] = target: T3, CD73-ND-L184A; assay: ELISA; decline multiple of EC50 against CD73-ND
# Method: as §1, §2
binder,measurement,setting,value
B1,Top,[1],0.871
same,Top,[2],2.05
same,Top,[3],1.7
same,Ratio(Top),[4],1 fold
same,Ratio(Top),[5],1.1 fold
same,Ratio(EC50),[6],1 fold
same,Ratio(EC50),[7],24.4 fold
same,Ratio(EC50),[8],0.6 fold
same,Ratio(EC50),[9],1.9 fold
same,Ratio(EC50),[10],3.4 fold
